Experimental data: article doi:10.1101/2022.07.08.499339 (bioRxiv, 2022)

Tests used:
[1] = molecular target: hMIGA2_(long)-6xhis (human) (UniProt Q7L4E1); assay: native MS
[2] = molecular target: the molecule itself; assay: SEC

Row | stoichiometry N [1] | Molecule | stoichiometry N [2]
1 | 2 | hMIGA2_(long)-6xhis (from UniProt Q7L4E1 170-593) (domain or fragment) | 
2 |  | CeMIGA2_(long), C. elegans MIGA (106-496) (domain or fragment, UniProt Q21096 106-496, looked up) SMNPIEADITSGQELCTELRKTIEKVHHNLEMVKNRSSKDMERSIKIEGILKGLKQVEDEIVLLVPQMEDFRDDNMEFYSVSGGSGYAGSVRTGRSRTLSVLSDDSFRSAVEEFACDIDDIDFVSDAANLDKNELRFLDEGMQAALNGEVKYRKSRMEFCKCDSETDFAAKLYCVRQALTNALKDEHKRVWLAKCGRTLLADFIRHTKQDPVKFFNAYDEMLEYVSNDRNEEQLRQDVEGRGVCETGFYDVAIDFIILDAFEDLKSPPSAVYSVTKNYFMSMSMKYSTLNTIIWSIIKSKRQRLKNPDGFIAKFYNISETVMPAITLGFLGTDERLGELCQYFKEQVVQFVLDVFNTQKVCYRSLEEMSEDVWIVMRNRLEAVQTRMSNEL | 2
